Where no end group is shown, it is not given here. The star is where a group is joined. C16 diacid = O=C(O)CCCCCCCCCCCCCCC(=O)*
T1: human GIP receptor (human, UniProt P48546 22-466)
T1 sequence (looked up): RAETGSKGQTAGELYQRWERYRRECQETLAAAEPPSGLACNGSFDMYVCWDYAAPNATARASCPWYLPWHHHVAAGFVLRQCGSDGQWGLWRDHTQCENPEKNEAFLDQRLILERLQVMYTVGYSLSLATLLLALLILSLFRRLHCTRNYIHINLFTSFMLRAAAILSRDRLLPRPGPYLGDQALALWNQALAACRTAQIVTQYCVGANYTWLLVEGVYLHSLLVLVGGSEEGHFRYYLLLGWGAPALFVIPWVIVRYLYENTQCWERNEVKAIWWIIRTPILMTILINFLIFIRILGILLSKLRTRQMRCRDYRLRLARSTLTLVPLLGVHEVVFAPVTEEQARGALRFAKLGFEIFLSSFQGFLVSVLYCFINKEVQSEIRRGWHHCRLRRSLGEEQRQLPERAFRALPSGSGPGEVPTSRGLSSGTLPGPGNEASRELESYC

B1: AT461 (peptide)
peptide: TFISDYKIAMDKIHQQDFVNWLLAQKGKKNDWKHNI
HELM: PEPTIDE1{T.F.I.S.D.Y.K.I.A.M.D.K.I.H.Q.Q.D.F.V.N.W.L.L.A.Q.K.G.K.K.N.D.W.K.H.N.I}|PEPTIDE2{[O=C(O)CCCCCCCCCCCCCCC(=O)[*:2]].[gGlu]}$PEPTIDE1,PEPTIDE2,7:R3-2:R2$$$V2.0; N-terminus assumed
SMILES: CC[C@H](C)[C@H](NC(=O)[C@H](CC(N)=O)NC(=O)[C@H](Cc1c[nH]cn1)NC(=O)[C@H](CCCCN)NC(=O)[C@H](Cc1c[nH]c2ccccc12)NC(=O)[C@H](CC(=O)O)NC(=O)[C@H](CC(N)=O)NC(=O)[C@H](CCCCN)NC(=O)[C@H](CCCCN)NC(=O)CNC(=O)[C@H](CCCCN)NC(=O)[C@H](CCC(N)=O)NC(=O)[C@H](C)NC(=O)[C@H](CC(C)C)NC(=O)[C@H](CC(C)C)NC(=O)[C@H](Cc1c[nH]c2ccccc12)NC(=O)[C@H](CC(N)=O)NC(=O)[C@@H](NC(=O)[C@H](Cc1ccccc1)NC(=O)[C@H](CC(=O)O)NC(=O)[C@H](CCC(N)=O)NC(=O)[C@H](CCC(N)=O)NC(=O)[C@H](Cc1c[nH]cn1)NC(=O)[C@@H](NC(=O)[C@H](CCCCN)NC(=O)[C@H](CC(=O)O)NC(=O)[C@H](CCSC)NC(=O)[C@H](C)NC(=O)[C@@H](NC(=O)[C@H](CCCCNC(=O)CC[C@H](NC(=O)CCCCCCCCCCCCCCC(=O)O)C(=O)O)NC(=O)[C@H](Cc1ccc(O)cc1)NC(=O)[C@H](CC(=O)O)NC(=O)[C@H](CO)NC(=O)[C@@H](NC(=O)[C@H](Cc1ccccc1)NC(=O)[C@@H](N)[C@@H](C)O)[C@@H](C)CC)[C@@H](C)CC)[C@@H](C)CC)C(C)C)C(=O)O
B2: AT462 (peptide)
peptide: TFISDYKIAMDKIHQQDFVNWLLAQKGKKNDWKHNIT
HELM: PEPTIDE1{T.F.I.S.D.Y.K.I.A.M.D.K.I.H.Q.Q.D.F.V.N.W.L.L.A.Q.K.G.K.K.N.D.W.K.H.N.I.T}|PEPTIDE2{[O=C(O)CCCCCCCCCCCCCCC(=O)[*:2]].[gGlu]}$PEPTIDE1,PEPTIDE2,7:R3-2:R2$$$V2.0; N-terminus assumed
SMILES: CC[C@H](C)[C@H](NC(=O)[C@H](CCCCNC(=O)CC[C@H](NC(=O)CCCCCCCCCCCCCCC(=O)O)C(=O)O)NC(=O)[C@H](Cc1ccc(O)cc1)NC(=O)[C@H](CC(=O)O)NC(=O)[C@H](CO)NC(=O)[C@@H](NC(=O)[C@H](Cc1ccccc1)NC(=O)[C@@H](N)[C@@H](C)O)[C@@H](C)CC)C(=O)N[C@@H](C)C(=O)N[C@@H](CCSC)C(=O)N[C@@H](CC(=O)O)C(=O)N[C@@H](CCCCN)C(=O)N[C@H](C(=O)N[C@@H](Cc1c[nH]cn1)C(=O)N[C@@H](CCC(N)=O)C(=O)N[C@@H](CCC(N)=O)C(=O)N[C@@H](CC(=O)O)C(=O)N[C@@H](Cc1ccccc1)C(=O)N[C@H](C(=O)N[C@@H](CC(N)=O)C(=O)N[C@@H](Cc1c[nH]c2ccccc12)C(=O)N[C@@H](CC(C)C)C(=O)N[C@@H](CC(C)C)C(=O)N[C@@H](C)C(=O)N[C@@H](CCC(N)=O)C(=O)N[C@@H](CCCCN)C(=O)NCC(=O)N[C@@H](CCCCN)C(=O)N[C@@H](CCCCN)C(=O)N[C@@H](CC(N)=O)C(=O)N[C@@H](CC(=O)O)C(=O)N[C@@H](Cc1c[nH]c2ccccc12)C(=O)N[C@@H](CCCCN)C(=O)N[C@@H](Cc1c[nH]cn1)C(=O)N[C@@H](CC(N)=O)C(=O)N[C@H](C(=O)N[C@H](C(=O)O)[C@@H](C)O)[C@@H](C)CC)C(C)C)[C@@H](C)CC
B3: AT460 (peptide)
peptide: TFISDYKIAMDKIHQQDFVNWLLAQKGKKNDWKH
HELM: PEPTIDE1{T.F.I.S.D.Y.K.I.A.M.D.K.I.H.Q.Q.D.F.V.N.W.L.L.A.Q.K.G.K.K.N.D.W.K.H}|PEPTIDE2{[O=C(O)CCCCCCCCCCCCCCC(=O)[*:2]].[gGlu]}$PEPTIDE1,PEPTIDE2,7:R3-2:R2$$$V2.0; N-terminus assumed
SMILES: CC[C@H](C)[C@H](NC(=O)[C@H](CCCCNC(=O)CC[C@H](NC(=O)CCCCCCCCCCCCCCC(=O)O)C(=O)O)NC(=O)[C@H](Cc1ccc(O)cc1)NC(=O)[C@H](CC(=O)O)NC(=O)[C@H](CO)NC(=O)[C@@H](NC(=O)[C@H](Cc1ccccc1)NC(=O)[C@@H](N)[C@@H](C)O)[C@@H](C)CC)C(=O)N[C@@H](C)C(=O)N[C@@H](CCSC)C(=O)N[C@@H](CC(=O)O)C(=O)N[C@@H](CCCCN)C(=O)N[C@H](C(=O)N[C@@H](Cc1c[nH]cn1)C(=O)N[C@@H](CCC(N)=O)C(=O)N[C@@H](CCC(N)=O)C(=O)N[C@@H](CC(=O)O)C(=O)N[C@@H](Cc1ccccc1)C(=O)N[C@H](C(=O)N[C@@H](CC(N)=O)C(=O)N[C@@H](Cc1c[nH]c2ccccc12)C(=O)N[C@@H](CC(C)C)C(=O)N[C@@H](CC(C)C)C(=O)N[C@@H](C)C(=O)N[C@@H](CCC(N)=O)C(=O)N[C@@H](CCCCN)C(=O)NCC(=O)N[C@@H](CCCCN)C(=O)N[C@@H](CCCCN)C(=O)N[C@@H](CC(N)=O)C(=O)N[C@@H](CC(=O)O)C(=O)N[C@@H](Cc1c[nH]c2ccccc12)C(=O)N[C@@H](CCCCN)C(=O)N[C@@H](Cc1c[nH]cn1)C(=O)O)C(C)C)[C@@H](C)CC
B4: AT463 (peptide)
peptide: FISDYSIAMDKIK(C16 diacid)QQDFVNWLLAQKGKK-OH
modifications: N-terminus assumed
SMILES: CC[C@H](C)[C@H](NC(=O)[C@H](CO)NC(=O)[C@H](Cc1ccc(O)cc1)NC(=O)[C@H](CC(=O)O)NC(=O)[C@H](CO)NC(=O)[C@@H](NC(=O)[C@@H](N)Cc1ccccc1)[C@@H](C)CC)C(=O)N[C@@H](C)C(=O)N[C@@H](CCSC)C(=O)N[C@@H](CC(=O)O)C(=O)N[C@@H](CCCCN)C(=O)N[C@H](C(=O)N[C@@H](CCCCNC(=O)CCCCCCCCCCCCCCC(=O)O)C(=O)N[C@@H](CCC(N)=O)C(=O)N[C@@H](CCC(N)=O)C(=O)N[C@@H](CC(=O)O)C(=O)N[C@@H](Cc1ccccc1)C(=O)N[C@H](C(=O)N[C@@H](CC(N)=O)C(=O)N[C@@H](Cc1c[nH]c2ccccc12)C(=O)N[C@@H](CC(C)C)C(=O)N[C@@H](CC(C)C)C(=O)N[C@@H](C)C(=O)N[C@@H](CCC(N)=O)C(=O)N[C@@H](CCCCN)C(=O)NCC(=O)N[C@@H](CCCCN)C(=O)N[C@@H](CCCCN)C(=O)O)C(C)C)[C@@H](C)CC
B5: AT459 (peptide)
peptide: TFISDYKIAMDKIHQQDFVNWLLAQKGKKNDWK
HELM: PEPTIDE1{T.F.I.S.D.Y.K.I.A.M.D.K.I.H.Q.Q.D.F.V.N.W.L.L.A.Q.K.G.K.K.N.D.W.K}|PEPTIDE2{[O=C(O)CCCCCCCCCCCCCCC(=O)[*:2]].[gGlu]}$PEPTIDE1,PEPTIDE2,7:R3-2:R2$$$V2.0; N-terminus assumed
SMILES: CC[C@H](C)[C@H](NC(=O)[C@H](CCCCNC(=O)CC[C@H](NC(=O)CCCCCCCCCCCCCCC(=O)O)C(=O)O)NC(=O)[C@H](Cc1ccc(O)cc1)NC(=O)[C@H](CC(=O)O)NC(=O)[C@H](CO)NC(=O)[C@@H](NC(=O)[C@H](Cc1ccccc1)NC(=O)[C@@H](N)[C@@H](C)O)[C@@H](C)CC)C(=O)N[C@@H](C)C(=O)N[C@@H](CCSC)C(=O)N[C@@H](CC(=O)O)C(=O)N[C@@H](CCCCN)C(=O)N[C@H](C(=O)N[C@@H](Cc1c[nH]cn1)C(=O)N[C@@H](CCC(N)=O)C(=O)N[C@@H](CCC(N)=O)C(=O)N[C@@H](CC(=O)O)C(=O)N[C@@H](Cc1ccccc1)C(=O)N[C@H](C(=O)N[C@@H](CC(N)=O)C(=O)N[C@@H](Cc1c[nH]c2ccccc12)C(=O)N[C@@H](CC(C)C)C(=O)N[C@@H](CC(C)C)C(=O)N[C@@H](C)C(=O)N[C@@H](CCC(N)=O)C(=O)N[C@@H](CCCCN)C(=O)NCC(=O)N[C@@H](CCCCN)C(=O)N[C@@H](CCCCN)C(=O)N[C@@H](CC(N)=O)C(=O)N[C@@H](CC(=O)O)C(=O)N[C@@H](Cc1c[nH]c2ccccc12)C(=O)N[C@@H](CCCCN)C(=O)O)C(C)C)[C@@H](C)CC
B6: AT458 (peptide)
peptide: TFISDYKIAMDKIHQQDFVNWLLAQKGKKND
HELM: PEPTIDE1{T.F.I.S.D.Y.K.I.A.M.D.K.I.H.Q.Q.D.F.V.N.W.L.L.A.Q.K.G.K.K.N.D}|PEPTIDE2{[O=C(O)CCCCCCCCCCCCCCC(=O)[*:2]].[gGlu]}$PEPTIDE1,PEPTIDE2,7:R3-2:R2$$$V2.0; N-terminus assumed
SMILES: CC[C@H](C)[C@H](NC(=O)[C@H](CCCCNC(=O)CC[C@H](NC(=O)CCCCCCCCCCCCCCC(=O)O)C(=O)O)NC(=O)[C@H](Cc1ccc(O)cc1)NC(=O)[C@H](CC(=O)O)NC(=O)[C@H](CO)NC(=O)[C@@H](NC(=O)[C@H](Cc1ccccc1)NC(=O)[C@@H](N)[C@@H](C)O)[C@@H](C)CC)C(=O)N[C@@H](C)C(=O)N[C@@H](CCSC)C(=O)N[C@@H](CC(=O)O)C(=O)N[C@@H](CCCCN)C(=O)N[C@H](C(=O)N[C@@H](Cc1c[nH]cn1)C(=O)N[C@@H](CCC(N)=O)C(=O)N[C@@H](CCC(N)=O)C(=O)N[C@@H](CC(=O)O)C(=O)N[C@@H](Cc1ccccc1)C(=O)N[C@H](C(=O)N[C@@H](CC(N)=O)C(=O)N[C@@H](Cc1c[nH]c2ccccc12)C(=O)N[C@@H](CC(C)C)C(=O)N[C@@H](CC(C)C)C(=O)N[C@@H](C)C(=O)N[C@@H](CCC(N)=O)C(=O)N[C@@H](CCCCN)C(=O)NCC(=O)N[C@@H](CCCCN)C(=O)N[C@@H](CCCCN)C(=O)N[C@@H](CC(N)=O)C(=O)N[C@@H](CC(=O)O)C(=O)O)C(C)C)[C@@H](C)CC

Target: T1, human GIP receptor
Assay: cell-based or functional assay

| Binder | cAMP antagonism [nM] | cAMP antagonism % inhib [%] | cAMP antagonism log [log M] |
| --- | --- | --- | --- |
| B1 | 23 | 100 | -7.6 |
| B2 | 37 | 85 | -7.4 |
| B3 | 40 | 100 | -7.4 |
| B4 | 14 | 88 | -7.8 |
| B5 | 31 | 88 | -7.5 |
| B6 | 38 | 100 | -7.4 |
